According to patent US6589750B2, “Therapeutic use of the SMR1 protein, the SMR1 maturation products, specifically the QHNPR pentapeptide as well as its biologically active derivatives” (Institut Pasteur, priority 1997, dated 2003):
Square brackets hold non-standard residues; d marks the D form. Ends that are not written are not given here. pGlu = O=C1CC[C@@H](C(=O)O)N1

Assays:
[1] = rat, in vivo
Procedure: Labeled compound i.e. 6.66 MBq, 3 nmoles or 2 mg for whole body autoradiography (WBA) and 370-555 KBq, 170-250 pmoles or 110-160 ng for the pharmacokinetic and cellular-site distribution studies was diluted in 100-200 ml of phosphate-buffered saline (PBS Dulbecco's, Bio Media, France) and administered intravenously into the jugular vein of anesthetized rats (halothan for WBA or pentobarbital for all the other experiments).
The five week-old rats were sacrificed under halothane, at 90 sec., 3, 60 and 240 min. after i.v. injection of 3 nmoles (6.66 MBq or 2 μg) of tritiated pentapeptide. At the selected time, the restrained animal was immediately immersed in a −80° C. mixture of dry ice and isopentane, to prevent artefactual tracer redistribution. After 48 hours in self-sealing plastic stored at −30° C., the animal was then blocked in mounting medium. Whole body sagittal sections (20 mm) of the frozen rat were made at −30° C. with a cryostat (whole body slicing microtome Leitz 400 with a chest mobil freezer Leitz O M, Leica, France). […]
The quantitative determination of the radioactivity in various organ sections was carried out by using a gaseous detector of β-particles, which has recently been developed (Charpak et al., 1989; Tribollet et al., 1991). […] The number of counts per pixel was recorded in the β imager 2200 (Biospace, France) with a surface detector of 20×20 cm^2, followed by computer-assisted image analysis with the β Vision program using a HP Vectra computer. The tritium activity was determined as counts/mm^2. The linearity of this method of detection allowed measurement of the non specific binding of ^3H-pentapeptide, measured in various structures or compartments within the section with apparent non binding sites for the peptide (background tissues, e.g. muscle and cardiac blood except brain and spinal cord) or in the same labeled structure, in displacement experiments. […]
Assessment of tissue peptide targeting was accomplished by a β-radio imager quantification (FIG. 2). […]

[2] = tested on: pentapeptide binding sites; experiment: Cellular localization of 3H-pentapeptide binding sites by light microscopic autoradiography, in vivo radiolabeling; design: species or system rat
Procedure: The cellular-site localization for physiological concentrations of labeled pentapeptide was investigated by paraffin- or resin-section microscopic autoradiography procedure.
Sixty minutes after ^3H-pentapeptide (555 KBq, 160 ng or 250 pmoles) i.v. administration, the anesthetized male rats were perfused via the jugular veins with ice-cold Krebs Ringer Bicarbonate Glucosed buffer and then 0.5% paraformaldehyde/0.5% glutaraldehyde fixative PBS buffer (plus glucose 1.6%, CaCl2 0.002% and DMSO 1%) (50 ml/5 min. for each). Tissues were rapidly removed and harvested for paraffin sectioning (Paraplast plus-Sherwood medical, OSI, France) or for resin sectioning (histo-resin Leica, France). All sections were cut at 5 microns (Reichert Jung for paraffin and RM2155 Leica for resin sections) and mounted on Superfrost/Plus glass slides (non gelatin-coated). Paraffin was removed with xylene, and sections were carried through a descending, then an ascending ethanol series (from 100 to 50%, VN and reverse). Dried sections were then processed for light microscope autoradiography by attaching nuclear emulsion-coated (Kodak, NTB2, diluted 1:1 with distilled water) coverslips to them. After air drying for 2 hrs at room temperature the autoradiographs were exposed for 6 to 10 weeks in light-tight boxes at 4° C. Radiosensitive coverslips were developed in Kodak D19 (3 min.) developer and fixed in Kodak fixer (3 min.) Sections were counterstained with Harris' hematoxylin (Prolabo, France) and Toluidine blue (Sigma, France), dehydrated and mounted in Eukitt medium. The tissue and overlying silver grains were viewed and photographed with a Leica photomicroscope equipped with bright-field optics (DMRD Leitz, Leica).

[3] = Pentapeptide metabolic and pharmacokinetic study after i.v. bolus of tritiated pentapeptide; assay type: in vivo, rat
Procedure: The in vivo time course of distribution, metabolism and elimination of the pentapeptide was investigated in anesthetized adult male rats using physiological concentrations of circulating tritiated pentapeptide.
Anesthetized male rats were given a bolus intravenous injection of 170 pmoles or 110 ng tritiated pentapeptide diluted in 100 μl PBS Dulbecco's. Blood was collected in tubes containing a mixture of peptidase inhibitors described above, via a silastic catheter implanted into the external jugular vein. Blood was withdrawn just before and 2, 4, 6, 8, 10, 20, 30, 45, 60, 90 and 120 min. after peptide administration. Two milliliters of blood per rat were taken in all and the entire urinary bladder content was collected at a last selected point.
The biological samples were submitted to centrifugation and Parapak Q extraction conditions, as described above. Chromatrography using HPLC procedure described above and in the reference (Rougeot et al., 1994) was then applied to each extracted sample. The ODS AQ RP-C18 was used for identification of amino-terminal metabolites and Pep RPC HR C18 (Pharmacia, France) for identification of carboxyl-terminal metabolites. The radioactivity content of samples before and after chromatographic separations was determined using a beta counter (Kontron, MR300).

[4] = Chromatographic characterization of radioactive peptide uptake by tissues (methanol extraction, RP-HPLC); assay type: in vivo, rat
Procedure: The chromatographic characteristics of the labeled compound associated, in vivo, to target organs were assessed by HPLC.
At selected time points (2 and 180 min.) after administration of tritiated pentapeptide, the anesthetized rats were sacrificed (cardiac blood puncture) and tissues quickly removed on ice. The tissues were immediately homogenized at 4° C. in 5-10 volumes of 0.1 M chlorhydric acid using a potter homogenizer (demineralization of bone tissue was realized after 24-48 h at 4° C. in guanidium hydrochloride and EDTA pretreatment, 4 M and 0.25 M final concentration, respectively). Homogenates were centrifuged for 30 min. at 4° C. and 15,000 g. To determine total radioactivity, aliquots of the supernatant solution were added to 50 volumes of Biofluor (NEN, Dupont de Nemours, France) and counted in a liquid scintillation counter.
To determine the radioactivity in the pentapeptide fraction, aliquots of the tissue extracts were submitted to a methanol-extraction procedure (Rougeot et al., 1994) after neutralization with Tris/HCl pH 8.5 containing 16 mM DTPA (DiethyleneTriaminePenta-Acetic acid, Sigma, France). The methanol phase was removed from the supernatant by partial evaporation, then lyophilization and the reconstituted aqueous phase containing 16 mM DTPA was applied to ODS AQ column (HPLC RP C18 chromatography) (AIT, France). Elution with a linear gradient of 0.1% trifluoro acetic (TFA) in water/0.1% TFA in acetonitrile (Merck, France) from 100/0 (vol/vol) to 50/50 (vol/vol) was performed for 30 min. at a flow rate of 1 ml/min. Fractions were collected every 60 sec. and analyzed for radioactivity using a liquid scintillation counter.

peptide binding sites = experiment: In vivo displacement experiments with coinjection of 100-fold excess of unlabeled peptide; design: species or system rat
Description: Biological receptor sites have two essential characteristics that allow specific binding to be identified, in vivo; they have a high affinity for the ligand and the binding is saturable (Whitcomb et al., 1993). Therefore, displacement experiments, using parallel systemic administration of an excess of the corresponding unlabeled peptide has been performed. Furthermore, the specific cellular localization of labeled pentapeptide to target tissues has been identified by section microscopic autoradiography.
The tritium activity was determined as counts/mm^2.
In the case of radioactive quantification of organ sections or acid extracts, using a liquid scintillation counter (MR300 Kontron), the tritium activity was determined as cpm/mg protein. Protein concentration was determined by the Bradford method (Bradford et al., 1976).

anti-pentapeptide serum = experiment: competitive liquid phase RIA, unlabelled standard displaces 125I-labelled pentapeptide from the antiserum
[5] = 180 min after injection, DTPA extraction
[6] = 60 min, 100-fold excess unlabeled peptide

With “QHNPR (not fully specified (residue 4)) [pentapeptide, final secretory maturation product of SMR1; used tritiated as (Glp1/Gln1)-His-Asn-(3,4 3H)Pro-Arg]” the “persistence of label within target tissues” value [1] was > 240 min, the “radioactivity in intestinal content” value [1] was “No radioactivity was found in the intestinal content” and the “tissue to blood ratio” value [1] was ~2. For the same molecule, the “cellular localization of label in submandibular tissue” value ([2]; 60 min post-injection) was “no selective cell association of label was identifiable”, the “cellular localization of silver grains in glandular gastric mucosa” value ([2]; 60 min post-injection) was “over the chief or peptic cells” and the “cellular localization of silver grains in pancreatic tissue” value ([2]; 60 min post-injection) was “over the cells of acini”. For the same molecule, the “localization of silver grains in upper incisor root” value ([2]; 60 min post-injection) was “over the entire dentin layer”, the “cellular localization of silver grains in kidney” value ([2]; 60 min post-injection of physiological concentration (160 ng)) was “over the epithelial cells of the S3 segment of the straight portion of the proximal tubules” and the “radioactivity eliminated through glomerular filtration” value ([3]; anesthetized rats, over a 60 min period, 170 pmoles injected) was 6 pmol. For the same molecule, the distribution volume ([3]; male rat) was 35-40 ml/100 g. body weight, the “pentapeptide-binding substance complex as share of circulating peptide fraction” value ([3]; plasma, dissociated by acidic pH treatment) was “approximately 45%” and the “time from which plasma concentration is close to basal level” value ([3]; single i.v. injection of 110 ng tritiated pentapeptide) was 30 min. For the same molecule, the “time to maximal plasma level” value ([3]; single i.v. injection of 110 ng tritiated pentapeptide, two male rats) was ≤ 2 min, the “urine radioactivity that is pentapeptide metabolites” value ([3]; urinary bladder content) was “Approximately 80%” and the “infused pentapeptide metabolized in the bloodstream” value ([3]; within 4 min, proteolysis from the amino-terminal part) was 35%. For the same molecule, the “tissue radioactivity extracted from acid homogenates by methanol” value ([4]; 5-20 min survival time after 3 nmoles 3H-pentapeptide) was 72±4%, the “radioactive peptide fraction extracted by methanol with DTPA (16 mM)” value ([4]; 180 min after injection) was 53±9% and the “radioactive extract representing metabolites” value [4, 5] was 8±6%. For the same molecule, the “radioactive extract representing undissociated peptide complex” value [4, 5] was 29±14%, the “radioactivity recovered in RP-HPLC peak of free pentapeptide” value ([4]; 180 min after injection, DTPA extraction, target organs) was 52±8% and the “specific labeling percentage, glandular mucosa of the stomach” value (peptide binding sites; [6]) was 38-61%. For the same molecule, the “specific labeling percentage, long bone” value (peptide binding sites; [6]) was 29-38%, the “specific labeling percentage, pancreatic lobules” value (peptide binding sites; [6]) was 37-55% and the “specific labeling percentage, submandibular lobules” value (peptide binding sites; [6]) was 51-91%. The “displacement of 3H-pentapeptide uptake within the renal outer medullary” value (peptide binding sites; 60 min post-coinjection of 100-fold excess of unlabeled peptide) was “almost complete displacement” and the “specific labeling percentage, kidney” value (peptide binding sites; FIG. 8-B, depends on analysis method (total tissue count or regional analysis)) was 12 to 92%.

For QHNPR [[Gln^1] pentapeptide], the 50% displacement of the 125I-labelled pentapeptide (anti-pentapeptide serum) was < 570 fmol and the detection limit (80% binding) (anti-pentapeptide serum) was 106 fmol.

For [pGlu]HNPR [[Glp^1] pentapeptide], the 50% displacement of the 125I-labelled pentapeptide (anti-pentapeptide serum) was < 570 fmol and the detection limit (80% binding) (anti-pentapeptide serum) was 106 fmol.
